This note sets out measurements from patent US6117976, “Manufacture and use of polypeptides tagged using binding molecules” (Medical Research Council, dated 2000).

The target of this test is calmodulin (Homo sapiens (Human)). Nature of the test: not stated (off-rate from calmodulin).

The term koff denotes the first-order rate constant of dissociation. The low end stands for a long-lived complex, the high end for a short-lived complex.

No end group written: not given here.

B1: TAG 2 peptide, fluoresceinated (peptide)
peptide: CEIKRAAAINLKALAALAKKIL
modifications: also: fluorescein label, site not given here
Take B1: the dissociation rate constant (koff) was < 0.0001 s⁻¹.

B2: TAG 4 peptide, fluoresceinated (peptide)
peptide: CEIKRAAAINLKALAALAKKILIK
modifications: also: fluorescein label, site not given here
For the molecule B2, the koff is < 0.0001 s⁻¹.
